Km and Vmax data for two proteins are collected here from patent US6033823A, “Mutated penicillin G acylase genes” (priority 1994, dated 2000).

Type in all cases: biochemical, Alcaligenes faecalis
Substrate in data set [1]: CC1(C)S[C@@H]2[C@H](NC(=O)[C@H](N)c3ccc(O)cc3)C(=O)N2[C@H]1C(=O)O
As to the kind of experiment: Deacylation kinetics and phenylacetic acid product inhibition, wild type PenG acylase. Particulars: other: wild type; 20 mM NaH2PO4, pH 7.0, 37° C.; pH 7.0; 37.0 °C. The method, then:
(§1) In order to determine enzymatic activity the acylases were incubated with substrate at room temperature in buffered solution. In case β-lactamase impurity was expected to be present in the enzyme preparations, 1.0 mM -lactamase inhibitor 6-bromo-penicillanic acid was added to the assay. The reactions were stopped by adding an excess PMSF. For some mutants which were less sensitive to PMSF inhibition, the reactions were stopped by adding 0.5 M HCl or 0.5 M acetic acid until the pH was between 3 and 4. When reactions were subsequently analysed by HPLC, the reactions were stopped by dilution with the correponding elution solvent (see table 1). In addition substrates were incubated under assay conditions in absence of enzyme. If necessary enzyme assays were corrected for non-enzymatic hydrolysis
(§2) The composition of the reaction mixtures was determined by high-performanceliquid chromatography (HPLC)(table 1). Concentrations were determined by using standards of known concentration.
(§3) In a continuous assay Penicillin G acylase was assayed spectro-fotometrically with the chromogenic substrate NIPAB [6-nitro-3-phenylacetamido-benzoic acid]. The liberation of 3-amino-6-nitrobenzoic acid was monitored by measuring the extinction at 405 nm in a Kontron 610 kinetic spectrofotometer. […] Initial rate measurements were performed with varying concentration of NIPAB.
(§4) The kinetics of enzymatic hydrolysis of PenG, PenV, CefG were also studied by alkaline titration (0, OlM KOH), using a Radiometer pH-stat. All experiments were carried out in a buffer free medium.
(§5) Initial rate measurements were performed with excess substrate over the enzyme. Catalytic parameters were derived from least-squares fitting of the measured initial rates plotted for various substrate concentrations according to the Michaelis-Menten equation.
(§6) The complete conversion of NIPAB was followed as a funtion of time at 20, 50 and 100 μM NIPAB by following the increase in absorbtion at 405 nm. Products of this conversion are phenylacetic acid and 3-amino-6-nitrobenzoic acid. […] The progress curves of the deacylation of NIPAB could be fitted very well when product inhibition by phenylacetic acid was taken into account. The dissociation constants (usually referred to as inhibition constant Ki) for phenylacetic acid which could be derived from the progress curves is shown in table 11. For these mutants the yield of the conversion in a fixed time span is higher than for wild type. Alternatively, in order to obtain a certain yield a shorter conversion time is needed for the mutants.

Substrate in data set [2]: CC1=C(C(=O)O)N2C(=O)[C@@H](NC(=O)Cc3ccccc3)[C@H]2SC1
The data set is described as above. Particulars: other: wild type; 20 mM NaH2PO4, pH 7.5, 37° C.; pH 7.5; 37.0 °C. How it is done:
as §1, §2, §3, §4, §5, §6

Substrate in data set [3]: CC1(C)S[C@@H]2[C@H](NC(=O)[C@H](N)c3ccccc3)C(=O)N2[C@H]1C(=O)O
The description is as above. Particulars: other: wild type; 20 mM NaH2PO4, pH 7.0, 37° C.; pH 7.0; 37.0 °C. How it is done:
as §1, §2, §3, §4, §5, §6

Substrate in data set [4]: O=C(Cc1ccccc1)Nc1ccc([N+](=O)[O-])c(C(=O)O)c1
The description is as above. The settings on record: other: wild type; 0.1M NaH2PO4, pH 7.5, 25° C.; pH 7.5; 25.0 °C. How it is done: as §1, §2, §3, §4, §5, §6

Substrate in data set [5]: CC1(C)S[C@@H]2[C@H](NC(=O)COc3ccccc3)C(=O)N2[C@H]1C(=O)O
The description is as above. Particulars: other: wild type; 40 mM NaH2PO4, pH 7.5, 37° C.; pH 7.5; 37.0 °C. How it is done: as §1, §2, §3, §4, §5, §6

Substrate in data set [6]: NC(=O)[C@H](N)c1ccccc1
Described as above. The settings on record: other: wild type; 20 mM NaH2PO4, pH 7.0, 37° C.; pH 7.0; 37.0 °C. How it is done: as §1, §2, §3, §4, §5, §6

Substrate in data set [7]: CC1(C)S[C@@H]2[C@H](NC(=O)Cc3ccccc3)C(=O)N2[C@H]1C(=O)O
The description is as above. The settings on record: other: wild type; 40 mM NaH2PO4, pH 7.5, 37° C.; pH 7.5; 37.0 °C. How it is done: as §1, §2, §3, §4, §5, §6

Substrate in data set [8]: CC1=C(C(=O)O)N2C(=O)[C@@H](NC(=O)Cc3ccccc3)[C@H]2SC1
As to the kind of experiment: Deacylation kinetics and phenylacetic acid product inhibition, mutant B:L56K. The settings on record: other: B:L56K; 20 mM NaH2PO4, pH 7.5, 37° C.; pH 7.5; 37.0 °C. How it is done: as §1, §2
(§7) In a continuous assay Penicillin G acylase was assayed spectro-fotometrically with the chromogenic substrate NIPAB [6-nitro-3-phenylacetamido-benzoic acid]. The liberation of 3-amino-6-nitrobenzoic acid was monitored by measuring the extinction at 405 nm in a Kontron 610 kinetic spectrofotometer. […] Initial rate measurements were performed with varying concentration of NIPAB. […]
as §5, §6

Substrate in data set [9]: CC1(C)S[C@@H]2[C@H](NC(=O)[C@H](N)c3ccccc3)C(=O)N2[C@H]1C(=O)O
The data set is described as above. The settings on record: other: B:L56K; 20 mM NaH2PO4, pH 7.0, 37° C.; pH 7.0; 37.0 °C. The method, then:
as §1, §2, §7, §5, §6

Substrate in data set [10]: O=C(Cc1ccccc1)Nc1ccc([N+](=O)[O-])c(C(=O)O)c1
Described as above. The settings on record: other: B:L56K; 0.1M NaH2PO4, pH 7.5, 25° C.; pH 7.5; 25.0 °C. The method, then:
as §1, §2, §7, §5, §6

Substrate in data set [11]: CC1(C)S[C@@H]2[C@H](NC(=O)COc3ccccc3)C(=O)N2[C@H]1C(=O)O
The data set is described as above. Particulars: other: B:L56K; 40 mM NaH2PO4, pH 7.5, 37° C.; pH 7.5; 37.0 °C. The method, then: as §1, §2, §7, §5, §6

Substrate in data set [12]: NC(=O)[C@H](N)c1ccccc1
The data set is described as above. Particulars: other: B:L56K; 20 mM NaH2PO4, pH 7.0, 37° C.; pH 7.0; 37.0 °C. The method, then: as §1, §2, §7, §5, §6

Substrate in data set [13]: CC1(C)S[C@@H]2[C@H](NC(=O)Cc3ccccc3)C(=O)N2[C@H]1C(=O)O
The description is as above. Particulars: other: B:L56K; 40 mM NaH2PO4, pH 7.5, 37° C.; pH 7.5; 37.0 °C. How it is done:
as §1, §2, §7, §5, §6

B1: Alcaligenes faecalis Penicillin G acylase, wild type (α subunit SEQ ID NO:27, β subunit SEQ ID NO:32) (Alcaligenes faecalis) (protein)
chain 1: QVQSVEVMRDSYGVPHVFADSHYGLYYGYGYAVAQDRLFQMDMARRSFVGTTAAVLGPGEQDAYVKYDMQVRQNFTPASIQRQIAALSKDERDIFRGYADGYNAYLEQVRRRPELLPKEYVDFDFQPEPLTDFDVVMIWVGSMANRFSDTNLEVTALAMRQSLEKQHGPERGRALFDELLWINDTTAPTTVPAPAAEHKPQA
chain 2: SNLWSTRPERVQEGSTVLINGPQFGWYNPAYTYGIGLHGAGFDVVGNTPFAYPIVLFGTNSEIAWGATAGPQDVVDIYQEKLNPSRADQYWFNNAWRTMEQRKERIQVRGQADREMTIWRTVHGPVMQFDYDQGAAYSKKRSWDGYEVQSLLAWLNVAKARNWTEFLDQASKMAISINWYYADKHGNIGYVSPAFLPQRPADQDIRVPAKGDGSMEWLGIKSFDAIPKAYNPPQGYLVNWNNKPAPDKTNTDTYYWTYGDRMNELVSQYQQKDLFSVQEIWEFNQKASYSDVNWRYFRPHLEKLAQQLPADDSSKAALTMLLAWDGMEQDQGGQNAGPARVLFKTWLEEMYKQVLMPVVPESHRAMYSQTGFATQQGPNPGSINLSMGTKVLLRALVLEAHPDPKRVNVFGERSSQEIMHTALQNAQARLSQEQGAQMARWTMPTSVHRFSDKNFTGTPQTMPGNTFAFTGYQNRGTENNRVVFDAKGVEFCDAMPPGQSGFTDRNGVRSPHYEDQLKLYENFECKTMDVTHADIRRNAQSSTMLLIQPQP
notes: alpha 202 aa, beta 551 aa; likely recombinant, E. coli host
As for B1, the Km in data set [1] came out at 14000 µM; in [2], 1 µM; in [3] it was 700 µM; in data set [4], 4 µM; in [5], 18 µM; in [6], 8600 µM. For the same protein, in [7], the Km stood at 2 µM. Further, the Vmax entry in [1] is on record as “.9 U/mg”; in data set [2], 12.5 U/mg; in data set [3], 23.5 U/mg; in [4], 37.0 U/mg; in data set [5], 4.0 U/mg; in data set [6], 27.5 U/mg. The Vmax in data set [7] stood at 45.5 U/mg.

B2: Alcaligenes faecalis Penicillin G acylase mutant B:L56K (Alcaligenes faecalis; L321K) (protein)
chain 1: QVQSVEVMRDSYGVPHVFADSHYGLYYGYGYAVAQDRLFQMDMARRSFVGTTAAVLGPGEQDAYVKYDMQVRQNFTPASIQRQIAALSKDERDIFRGYADGYNAYLEQVRRRPELLPKEYVDFDFQPEPLTDFDVVMIWVGSMANRFSDTNLEVTALAMRQSLEKQHGPERGRALFDELLWINDTTAPTTVPAPAAEHKPQA
chain 2: SNLWSTRPERVQEGSTVLINGPQFGWYNPAYTYGIGLHGAGFDVVGNTPFAYPIVKFGTNSEIAWGATAGPQDVVDIYQEKLNPSRADQYWFNNAWRTMEQRKERIQVRGQADREMTIWRTVHGPVMQFDYDQGAAYSKKRSWDGYEVQSLLAWLNVAKARNWTEFLDQASKMAISINWYYADKHGNIGYVSPAFLPQRPADQDIRVPAKGDGSMEWLGIKSFDAIPKAYNPPQGYLVNWNNKPAPDKTNTDTYYWTYGDRMNELVSQYQQKDLFSVQEIWEFNQKASYSDVNWRYFRPHLEKLAQQLPADDSSKAALTMLLAWDGMEQDQGGQNAGPARVLFKTWLEEMYKQVLMPVVPESHRAMYSQTGFATQQGPNPGSINLSMGTKVLLRALVLEAHPDPKRVNVFGERSSQEIMHTALQNAQARLSQEQGAQMARWTMPTSVHRFSDKNFTGTPQTMPGNTFAFTGYQNRGTENNRVVFDAKGVEFCDAMPPGQSGFTDRNGVRSPHYEDQLKLYENFECKTMDVTHADIRRNAQSSTMLLIQPQP
notes: alpha 202 aa, beta 551 aa; recombinant, E. coli host
Turning to B2, the Km is 10 µM in data set [8]; 1700 µM in data set [9]; 28 µM in data set [10]; 35 µM in data set [11]; 49000 µM in data set [12]; 1 µM in [13]. The Vmax in [8] is 25.5 U/mg; in data set [9], 20.9 U/mg; in [10], 47.3 U/mg; in [11], 15.5 U/mg; in data set [12] it was 18.2 U/mg; in data set [13], 36.4 U/mg.
